# Results taken from article PMC5025654.
# Columns and labels:
# [1] = molecular target: TGF-β1 of the porcine enamel matrix (porcine (endogenous in porcine enamel)); experiment: co-elution on RP-HPLC, TGF-β1 quantified by ALP-inducing activity of HPDL cells; amelogenins as purified from enamel (before the in vitro binding); ng of TGF-β1 per mg of amelogenin calculated from standard CF-hTGF-β1 (0.3 ng mL^-1), after dilution correction; complexes formed in vivo
# [2] = molecular target: carrier-free recombinant human TGF-β1 (human); experiment: in vitro binding, RP-HPLC, TGF-β1 quantified by ALP-inducing activity of HPDL cells; purified amelogenin mixed with CF-hTGF-β1 or rh-latent TGF-β1, fractions from RP-HPLC tested in the ALP-HPDL system; ng per mg of amelogenin calculated from standard CF-hTGF-β1 (0.3 ng mL^-1), after dilution correction; details in the Supplementary Methods
# Chain of carrier-free recombinant human TGF-β1 (human) (P01137 279-390): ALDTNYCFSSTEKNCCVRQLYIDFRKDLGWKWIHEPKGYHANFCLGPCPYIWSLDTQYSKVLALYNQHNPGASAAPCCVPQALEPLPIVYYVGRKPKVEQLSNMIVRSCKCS
# Chain of TGF-β1 of the porcine enamel matrix (porcine (endogenous in porcine enamel)) (P07200 279-390): as the sequence (P01137 279-390) above
binder,measurement,setting,value
P173 amelogenin (natural protein) MPLPPHPGHPGYINFSYEVLTPLKWYQNMIRHPYTSYGYEPMGGWLHHQIIPVVSQQTPQSHALQPHHHIPMVPAQQPGIPQQPMMPLPGQHSMTPTQHHQPNLPLPAQQPFQPQPVQPQPHQPLQPQSPMHPIQPLLPQPPLPPMFSMQSLLPDLPLEAWPATDKTKREEVD,"original TGF-β1, ng against 1 mg of amelogenin",[1],0.345 ng
same,"bound TGF-β1, ng against 1 mg of amelogenin",[2],1.18 ng
